Results: US20240025992A1

Target: human CD3 (CD3 epsilon as part of the T cell receptor complex) on cells (human) (UniProt P07766)
Experiment: flow cytometry on Jurkat cells, 10 nM antibody

human CD3 (CD3 epsilon as part of the T cell receptor complex) on cells (human), sequence (P07766 23-207 limits assumed, one chain of several): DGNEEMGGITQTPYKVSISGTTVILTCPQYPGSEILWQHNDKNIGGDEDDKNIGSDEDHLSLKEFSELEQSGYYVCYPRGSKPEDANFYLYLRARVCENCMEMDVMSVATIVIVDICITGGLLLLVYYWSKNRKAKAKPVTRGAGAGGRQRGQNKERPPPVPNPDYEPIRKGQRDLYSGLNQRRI

MFI (arbitrary units): 89200
Substance: UCHT1 (antibody)
